From PMC6685660

Experiments:
Experiment in all cases: EMSA
[1] = target: T1, AaTGA6 (Artemisia annua, UniProt A0A481P8G0 1-436)
T1 sequence: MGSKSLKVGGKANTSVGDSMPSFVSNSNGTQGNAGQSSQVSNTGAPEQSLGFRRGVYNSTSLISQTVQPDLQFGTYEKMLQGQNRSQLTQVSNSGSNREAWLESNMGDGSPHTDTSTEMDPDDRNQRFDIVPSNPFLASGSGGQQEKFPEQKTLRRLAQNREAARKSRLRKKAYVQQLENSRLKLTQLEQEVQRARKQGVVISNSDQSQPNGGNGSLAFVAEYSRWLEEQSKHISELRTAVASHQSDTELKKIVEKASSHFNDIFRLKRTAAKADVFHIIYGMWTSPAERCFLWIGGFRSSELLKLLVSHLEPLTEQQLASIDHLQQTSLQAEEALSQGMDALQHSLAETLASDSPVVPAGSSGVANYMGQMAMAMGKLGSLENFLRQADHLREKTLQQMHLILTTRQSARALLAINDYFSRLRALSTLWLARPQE

[2] = target: T2, AaNPR1 (Artemisia annua, UniProt A0A481P8F5 1-569)
T2 sequence: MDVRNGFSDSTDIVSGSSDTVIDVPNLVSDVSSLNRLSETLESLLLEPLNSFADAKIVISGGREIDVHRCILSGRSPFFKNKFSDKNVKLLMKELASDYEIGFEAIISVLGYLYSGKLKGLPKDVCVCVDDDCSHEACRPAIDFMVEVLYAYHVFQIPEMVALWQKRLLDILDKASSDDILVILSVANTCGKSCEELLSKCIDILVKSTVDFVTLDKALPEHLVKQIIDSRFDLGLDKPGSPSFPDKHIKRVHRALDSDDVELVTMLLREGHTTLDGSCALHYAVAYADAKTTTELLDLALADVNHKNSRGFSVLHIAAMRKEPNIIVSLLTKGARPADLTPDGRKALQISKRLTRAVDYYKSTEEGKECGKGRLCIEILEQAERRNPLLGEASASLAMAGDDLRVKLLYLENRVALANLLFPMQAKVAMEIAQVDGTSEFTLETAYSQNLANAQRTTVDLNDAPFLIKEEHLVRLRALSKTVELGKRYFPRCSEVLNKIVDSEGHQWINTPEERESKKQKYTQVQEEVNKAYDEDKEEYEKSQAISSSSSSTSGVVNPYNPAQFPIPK

[3] = target: T3, AaTGA6;AaNPR1 (Artemisia annua;Artemisia annua, UniProt A0A481P8G0;A0A481P8F5 1-436;1-569, |)
T3 sequence 1: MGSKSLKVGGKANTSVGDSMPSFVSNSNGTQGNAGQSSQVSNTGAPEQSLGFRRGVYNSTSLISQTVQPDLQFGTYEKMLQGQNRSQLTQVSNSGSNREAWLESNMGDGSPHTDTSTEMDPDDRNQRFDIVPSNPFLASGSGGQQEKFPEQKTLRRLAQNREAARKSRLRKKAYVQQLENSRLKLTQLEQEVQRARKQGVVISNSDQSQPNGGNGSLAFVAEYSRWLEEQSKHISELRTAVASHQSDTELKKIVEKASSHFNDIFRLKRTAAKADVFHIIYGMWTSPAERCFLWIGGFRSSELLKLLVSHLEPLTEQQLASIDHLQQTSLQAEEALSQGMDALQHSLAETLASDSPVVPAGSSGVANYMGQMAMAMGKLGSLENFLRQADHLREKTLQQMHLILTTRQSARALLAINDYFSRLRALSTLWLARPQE
T3 sequence 2: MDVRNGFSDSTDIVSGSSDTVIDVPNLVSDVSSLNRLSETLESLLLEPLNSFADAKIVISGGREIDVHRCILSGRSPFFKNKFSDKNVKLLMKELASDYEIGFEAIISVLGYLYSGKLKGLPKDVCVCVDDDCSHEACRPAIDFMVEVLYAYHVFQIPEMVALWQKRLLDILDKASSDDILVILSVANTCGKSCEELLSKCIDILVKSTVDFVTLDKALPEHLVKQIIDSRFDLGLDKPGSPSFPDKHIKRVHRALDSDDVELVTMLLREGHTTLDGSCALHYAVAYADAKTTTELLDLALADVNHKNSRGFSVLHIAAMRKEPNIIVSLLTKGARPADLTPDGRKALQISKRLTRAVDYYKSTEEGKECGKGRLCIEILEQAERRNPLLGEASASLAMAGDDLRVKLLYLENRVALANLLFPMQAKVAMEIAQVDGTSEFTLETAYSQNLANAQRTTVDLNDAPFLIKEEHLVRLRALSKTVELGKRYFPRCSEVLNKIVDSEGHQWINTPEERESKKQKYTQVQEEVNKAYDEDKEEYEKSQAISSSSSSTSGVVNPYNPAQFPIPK

B1: AaERF1 promoter TGACG box probe (40 bp) (dsDNA)
DNA 1: AATGATGCGTCAAGCCATGACGTCACCCCTAATCCTAAAT
DNA 2: ATTTAGGATTAGGGGTGACGTCATGGCTTGACGCATCATT
Does B1 bind [1]?
Result: binds

Does B1 bind [2]?
Result: no binding

Does B1 bind [3]?
Result: binds
